The values below come from the nanobody polyreactivity screen of Harvey et al. (2022).

The nature of the data set: yeast display, Sf9 membrane polyspecificity reagent, FACS + sequencing; frameworks hold sequencing errors. The gist of the method:
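After 36–48 hours of galactose induction, yeast (Saccharomyces cerevisiae BJ5465) displaying a synthetic nanobody library were stained at 4 °C for 1 hour with 10% biotinylated, detergent-solubilized Sf9 membrane reagent. Streptavidin microbeads enriched the stained cells before FACS sorting into low and high (top ~1%) gates on anti-HA and streptavidin fluorescence. Each clone's polyreactivity label reflects its gate of origin.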
Take “QVQLVESGGGLVQAGGSLRLSCAASGSIFLKYAMGWYRQAPGKERELVAAISSRGGSTYYADSVKGRFTISRDNAKNTVYLQMNSLKPEDTAVYYCAKVRQTYFGWYSTTRDYWGQGTQVTVSS”: the “polyreactivity (PSR sort gate)” value was “high polyreactivity”.

“QVQLVESGGGLVQAGGSLRLSCAASGSIFLLYAMGWYRQAPGKERELVAAMSRGGSTYADSVKGRFTISRDNAKNTVYLQMNSLKPEVTAVYYCAASDQYRWYVHRWEDPFYYWGQGTQVTVSS”: the “polyreactivity (PSR sort gate)” value is “low polyreactivity”.

“QVQLVESGGGLVQAGGSLRLSCAASGSIFLNYAMGWYRQAPGKERELVAAISYRVGRTYYADSVKGRFTISRDNAKNTVYLQMNSLKPVDTAVYYCAADSRSPGNDYWGQGTQVTVSS”: the “polyreactivity (PSR sort gate)” value was “high polyreactivity”.

For the sequence “QVQLVESGGGLVQAGGSLRLSCAASGSIFLPYAMGWNRQAPGKERELVAAITWSGGRTYYADSVKGRFTISRDNAKNTVYLQMNSLKPEDTAVYYCAADDSEGFDYWGQGTQVTVSS”, the “polyreactivity (PSR sort gate)” value is “high polyreactivity”.

In the case of “QVQLVESGGGLVQAGGSLRLSCAASGSIFLRNAMGWYRQAPGKERELVAAITWDSGDTYYADSVQGRFTISRDNAKNTVYLQMNSLKPEDTAVYYCNTLGLSSDWGQGTQVTVSS”, the “polyreactivity (PSR sort gate)” value is listed as “low polyreactivity”.

For “QVQLVESGGGLVQAGGSLRLSCAASGSIFLRYAMGWSRQARGKERELVAAITSSGRTNYADPVKGRFTISRDNAKNTVYLQMNSLKPEDTAVYYCAAVSYRQGVYRRNRYYYWGQGTQVTVSS”, the “polyreactivity (PSR sort gate)” value is reported as “high polyreactivity”.

Consider “QVQLVESGGGLVQAGGSLRLSCAASGSIFLSNAMGWYRQSPGKERELVAAISSSGGSTYYADSVKGRFTISRDNAKNTVYLQMNSLKPEDTAVYYCAATGYGFRGRFDYWGQGTQVTVSS”, for which the “polyreactivity (PSR sort gate)” value is given as “low polyreactivity”.

In the case of “QVQLVESGGGLVQAGGSLRLSCAASGSIFLSYAMGSYREAPGKERELVATITAGGGSTNYADSVKGRFTISRDNAKNTVYLQMNSLKPEDTAVYYCAAKRLSWHGYGYWGQGTQVTVSS”, the “polyreactivity (PSR sort gate)” value is reported as “low polyreactivity”.

Regarding “QVQLVESGGGLVQAGGSLRLSCAASGSIFLSYDMGWYRQAPGKERELVAAITQSGGSTYYADSVKGRFTISRDNAKNTVYLQINSLIPEDTAVYYCAADYGYLPQETYPTYGYYYWGQGTQVTVSS”, the “polyreactivity (PSR sort gate)” value is reported as “low polyreactivity”.

In the case of “QVQLVESGGGLVQAGGSLRLSCAASGSIFLTNAMGRYRQAPGKERELVAAIRSGGSTSYADSVKGRLTISRDNAKNTVYLQMNSLKPEDTAVYDCNAESDSRNYKVHPSGIYEYWGQGTQVTVSS”, the “polyreactivity (PSR sort gate)” value is listed as “low polyreactivity”.

For the sequence “QVQLVESGGGLVQAGGSLRLSCAASGSIFLTYDMGWYRQAPGKERELVAAITGSGDSTYYADSVKGRFTISRDNAKNTVYLQMNSLKPEDTAVYYCNADGPSTPWVDYGYWGQGTQVTVSS”, the “polyreactivity (PSR sort gate)” value is “low polyreactivity”.

For the sequence “QVQLVESGGGLVQAGGSLRLSCAASGSIFLVNAMGWYRQAPGKERELVASITWRGGRTYYADSVKGRFTISRDNAKNTVYLEMNSLKPEDTAVYYCAARNYRTGERLRYDYWGQGTQVTVSS”, the “polyreactivity (PSR sort gate)” value is “low polyreactivity”.

Consider “QVQLVESGGGLVQAGGSLRLSCAASGSIFLVNAMGWYRQAPGKVRELVAAITYGGDSTYYADSVKGRFTISRDHAQNTVYLQMNSLKPEDTAVYYCAADAWVGWHDEYDYWGQGTQVTVSA”, for which the “polyreactivity (PSR sort gate)” value is recorded as “low polyreactivity”.

Turning to “QVQLVESGGGLVQAGGSLRLSCAASGSIFLVNARGWYRQAPAKERELVASITWRGGRTYYADSVKGRFTISRDNAKNTDYLQMNSLKPEDTAVYYCAARNYRTGERLRYDYWGQGTQVTVSS”, the “polyreactivity (PSR sort gate)” value is recorded as “low polyreactivity”.

Regarding “QVQLVESGGGLVQAGGSLRLSCAASGSIFLVYAMGWYRQAPGKERELVAASDWSDTDTYYADSVKGRFTISRDNAKNTFYLQMNSLKPEDTAVYYCAADHVGVDFEYWGQGTQVTVSS”, the “polyreactivity (PSR sort gate)” value was “low polyreactivity”.

As to “QVQLVESGGGLVQAGGSLRLSCAASGSIFLVYGMGWYRPAPGKERELVAAISRTGGRTYYADSVKGRFTISRDNSKNTVYLQMNSLKPEDTAVYYCAAAAQRPEGYYWGQGTQVTVSS”, the “polyreactivity (PSR sort gate)” value is “high polyreactivity”.

Consider “QVQLVESGGGLVQAGGSLRLSCAASGSIFLVYGMGWYRQAPGKERELVAAITSSAGSTYYADSVKGRFTISRDNAKNTVYLQMNSLKPEDTAVYYCAARWAWSTYSYYYWGQGTQVTVSS”, for which the “polyreactivity (PSR sort gate)” value is on record as “high polyreactivity”.

Regarding “QVQLVESGGGLVQAGGSLRLSCAASGSIFLWYDMGWYRQAPGKERECVASITRSGGSTYYADSVKGRFTISRDNAKNTVYLQMNSLKPEDTAVYYCAASGATGRYSVYYHGYTYDYWGQGTQVTVSS”, the “polyreactivity (PSR sort gate)” value is given as “low polyreactivity”.

With “QVQLVESGGGLVQAGGSLRLSCAASGSIFLYNALGWYRQAPGKERELVAAIYKSGGSTYYADSVKGRFTISRDNEKNSVYLQMNSLKPEDTAVYYCAAGYGSRIRYGSEYDYWGQGTQVTVSS”, the “polyreactivity (PSR sort gate)” value is listed as “low polyreactivity”.

For “QVQLVESGGGLVQAGGSLRLSCAASGSIFLYNAMGWYIQAPGKERELVAAISKSGGSTYYADSVKGRFTISRDNAKNTVYLQMNSLKPEDTAVYYCAADFLPQSYNWYDYWGQGTEVTVSS”, the “polyreactivity (PSR sort gate)” value was “low polyreactivity”.

On to “QVQLVESGGGLVQAGGSLRLSCAASGSIFLYNAMGWYRPAPGKERELVAAISKSGGSTYYADSVKGRFTISRDNAKNTVYLQMNSLKPEDTAVYYCAAGYGRRIRYGSEYDYWGQGTQVTVSS”, for which the “polyreactivity (PSR sort gate)” value is “low polyreactivity”.

As for “QVQLVESGGGLVQAGGSLRLSCAASGSIFLYYAMGWYRQAPGKERELVAGINRVGSTNYADSVKGRFTISRDNAKNTVYLQMNSLKPEDTAVYYCNKRGTRSRRRGYWGQGTQVTVSS”, the “polyreactivity (PSR sort gate)” value is on record as “low polyreactivity”.

In the case of “QVQLVESGGGLVQAGGSLRLSCAASGSIFLYYAMGWYRQAPGKERELVATIRGSGSSTYYADSVKGRFTISRDNAKNTVYLQMNSLKPEDTAVYYCAAKGYRWFRHGGYYFKFDYWGQGTQVTVSS”, the “polyreactivity (PSR sort gate)” value is reported as “high polyreactivity”.

As to “QVQLVESGGGLVQAGGSLRLSCAASGSIFNAYVMGWYRQAPGKERELVAAISRSGGRTYYADSVKGRFTISRDNATNTVYLQMNCLKPEDTAVYYCAAGYRYNYWGQGSQVTVSS”, the “polyreactivity (PSR sort gate)” value is reported as “high polyreactivity”.

For “QVQLVESGGGLVQAGGSLRLSCAASGSIFNGYAMGWYRQAPGKERELVAAISWNGGRTYYADSVKGRFTISRDNAKNTVYLQMNSLKPEDTAVYYCNKVSGYDVDYWGQGTQVTVSS”, the “polyreactivity (PSR sort gate)” value is “high polyreactivity”.

In the case of “QVQLVESGGGLVQAGGSLRLSCAASGSIFNKNAMGWYRQAPGKERELVAAITSSGSSTYYADSVKGRFTISRDNAKNTVYLQMNSLKPEDTAVYYCNAQYGIRPRAGRTRQKYDYWGQGTQVTVSS”, the “polyreactivity (PSR sort gate)” value was “high polyreactivity”.

On to “QVQLVESGGGLVQAGGSLRLSCAASGSIFNKNTMGWYRQAPGKERELVAAISGRTGITTYADSVKGRFTISRDNAKNTVYLQMNSLKPEDTAVYYCNAANRWRGSYDYWGQGTQVTVSS”, for which the “polyreactivity (PSR sort gate)” value was “high polyreactivity”.

With “QVQLVESGGGLVQAGGSLRLSCAASGSIFNLNAMGWYRQAPGKERELVASISSDGSTYYADSVKGRFTISRDNAKNTVYLQMNSLKPEDTAVYYCNADSQWAFKQLSFDYWGQGTQVTVSS”, the “polyreactivity (PSR sort gate)” value is given as “low polyreactivity”.

As for “QVQLVESGGGLVQAGGSLRLSCAASGSIFNPYDMGWYRQAPGKERELVATISGGGGSTYYADSVKGRFTISRDNAKNTVYLQMNSLKPEDTAVYYCNKTDFNTNDLKFDYWGQGTQVTVSS”, the “polyreactivity (PSR sort gate)” value is listed as “low polyreactivity”.

Turning to “QVQLVESGGGLVQAGGSLRLSCAASGSIFNRYAMGWYRQEPGKERELVAAISRSGGRTYYADSVKGRFTISRDNAKNTVYLQMNSLKPEDTAVYYCAAQSYLHYGYWGQGTQVTVSS”, the “polyreactivity (PSR sort gate)” value is recorded as “high polyreactivity”.
